In test [1] the target is HRL40-1 (isolectin of Halimeda renschii lectin HRL40) (Halimeda renschii). Put plainly: LC-ESI-MS of the intact and of the reduced, S-pyridylethylated protein; LTQ Orbitrap XL; intact isolectin against the subunit mass derived after reduction with tri-n-butylphosphine and alkylation with 4-vinylpyridine.
For test [2], the target named is influenza virus envelope glycoprotein hemagglutinin (influenza virus (strain not stated for the immobilised hemagglutinin)). Put plainly: SPR; Biacore X100; […], HBS-N (10 mM HEPES, 150 mM NaCl, pH 7.4); […], dissociation 600 s; Langmuir 1:1 fit.
The target of test [3] is Halimeda renschii lectin HRL40 (Halimeda renschii). The experiment in a line: SDS-PAGE, non-reducing and reducing; 12% gel; samples heated at 100 C in 0.2% SDS with or without 2% 2-mercaptoethanol; about 40 kDa non-reduced, 10 kDa reduced.

The stoichiometry N is a count of units in the complex or per binding partner. A word on the Kd: it is the concentration at which binding is half-saturated. Lower therefore signals a tighter complex. The term koff denotes a measure of how fast the partners let go of each other. As usually defined, the kon is the second-order rate constant of association. The low end stands for slower complex formation, the high end for faster complex formation.

For “HRL40-1 (isolectin of Halimeda renschii lectin HRL40) (natural protein)”, the stoichiometry N in test [1] was determined as 4.
In test [2], “Halimeda renschii lectin HRL40 (natural protein)” had a Ka of 2.71e+10 M⁻¹, a Kd of 0.0369 nM, a koff of 2.63e-06 s⁻¹ and a kon of 71400 M⁻¹ s⁻¹. The same substance returned a stoichiometry N in test [3] of 4.
